Measured values published in article PMC2680271.

Assays:
[1] = system: KorA WT (IncP-1 plasmid (expressed in E. coli)); assay: EMSA
[2] = system: KorA Y84A (IncP-1 plasmid (expressed in E. coli)); assay: EMSA

Substance “korAp fragment (220 bp, EcoRI-cut pSTM12)” has a K half [1] of 300 nM and a K half [2] of 200 nM.
